Residue numbers refer to the chain shown, from its start.
B1: h1718-012 (antibody, V domains shown)
VH: EVQLVQSGAEVKKPGASVKVSCKASGYTITDYNMNWVRQAPGQRLEWIGVINPSYGITDYNQNFKDRVTITVDTSASTAYMELSSLRSEDTAVYYCAIQLRLPGYFDVWGQGTTVTVSS
VL: DIQMTQSPSSLSASVGDRVTITCKASQDINQYLNWFQQKPGKAPKTLIYRANRLVDGVPSRFSGSGSGQDYTLTISSLQPEDFATYYCLKYDEFPYTFGGGTKVEIK
notes: Only variable regions are tied to this name
B2: h1721-003 (antibody, V domains shown)
VH: EVTLKESGPVLVKPTETLTLTCTVSGFSLSSYGVNWIRQPPGKALEWLGVIWGDGSTNYHSALISRLTISKDTSKSQVVLTLTNMDPVDTATYYCAKNYFYGSRYGYAMDSWGQGTTVTVSS
VL: DIQMTQSPSSLSASVGDRVTITCRASENIYSSLAWYQQKPGKAPKLLIYNAKTLIEGVPSRFSGSGSGTDFTLTISSLQPEDFATYYCQHHYGTPYTFGGGTKVEIK
notes: Only variable regions are tied to this name; also called M721-003
B3: ch1720 (antibody, human IgG4 S228P, kappa, V domains shown)
VH: EFQLQQSGPELVKPGASVKISCKASAYSLTDYNMNWVKQSNGKSLEWIGVINPSYGISSYNQKFKGKATLTVDQSSSTAYMHLNSLTSEDSAVYYCARQLRLPGYFDVWGTGTTVTVSS
VL: DIKMTQSPSSKNASLGERVTITCKASQDINSYLNWFQQKPGKSPKTLIYRASRLVDGVPSRFSGSGSGQDYSLTISSLEYEDMGIYYCLKYDEFPYTFGGGTKLEIKR
notes: also called chimeric antibody corresponding to m1720
B4: h1722-010 (antibody, V domains shown)
VH: EVQLVQSGAEVKKPGSSVKVSCKASGGTFSDYWMHWVRQAPGQGLEWIGMLHPNSGTTSFNEKFKIRVTITADKSTSTAYMELSSLRSEDTAVYYCASDYSGPFAYWGQGTLVTVSS
VL: DIQLTQSPSSLSASVGDRVTITCSASSSVNYIHWYQQKPGKAPKRWIFDTSKLASGVPSRFSGSGSGTDYTLTISSLQPEDFATYYCQQWRSNPLTFGQGTKLEIK
notes: Only variable regions are tied to this name; also called M722-010
B5: h1722-017 (antibody, V domains shown)
VH: B4 VH with N54K
VL: B4 VL
B6: h1722-018 (antibody, V domains shown)
VH: B4 VH with N54Q
VL: B4 VL
B7: ch1718 (antibody, human IgG4 S228P, kappa, V domains shown)
VH: B3 VH with L29I, S58T, S59D, K63N, G66D, H82Q, R98I, T116I
VL: B3 VL with K11M, N12Y, S31N, S52N, L104V
notes: also called chimeric antibody corresponding to m1718
B8: ch1719 (antibody, human IgG4 S228P, kappa, V domains shown)
VH: QVQLKESGPGLVAPSQSLSITCTVSGFSLISYGVSWVRQPPGKGLEWLGVIWGDGNTNYHSVLISRLSIRKDDSKSQVFLKLNSLQTDDTATYYCAKNNYYGSRYGYPMDYWGQGTSVTVSS
VL: DIVMTQSHKFMSTSVGDRVSITCKATQDVGTAVAWYQQKPGHSPKLLIYWASTRHTGVPERFTGSGSGTDFTLTIDNVQSEDLADYFCQQYGSSVLTFGAGTKVELRR
notes: also called chimeric antibody corresponding to m1719
B9: ch1721 (antibody, human IgG4 S228P, kappa, V domains shown)
VH: B8 VH with S35N, N56S, V62A, R70S, K81N, N99Y, Y100F, P108A, Y111S, T116I
VL: DIQMTQSPASLSAAVGETVTITCRASENIYSSLAWYQQKQGKSPQLLVYNAKTLIETVASRFSGSGSGTQYSLKINSLQPEDFGSFYCQHHYGTPYTFGGGTKLEIKR
notes: also called chimeric antibody corresponding to m1721
B10: ch1722 (antibody, human IgG4 S228P, kappa, V domains shown)
VH: QVQLQQPGAELVKPGTSVKLSCKASGNTFIDYWMHWVKQRPGQGLEWIGMLHPNSGTTSFNEKFKIKTTLTIDKSSSTAYMQLSSLTSEDSAIYYCASDYSGPFAYWGQGTLVTVSA
VL: QIVLTQSPGIMSAFPGEKVTMTCSASSSVNYIHWYQQKSGTSPKRWIFDTSKLASGVPARFSGSGSGTSYSLTISSMEAEDAATYYCQQWRSNPLTFGAGTKLELKR
notes: also called chi722; chimeric antibody corresponding to m1722
B11: h1719-014 (antibody, V domains shown)
VH: B2 VH with N35S, I37V, A44G, S56N, A62V, F100Y, A108P, M109L, S111Y
VL: DIQMTQSPSSVSASVGDRVTITCKATQDVGTAVAWYQQKPGKSPKLLIYWASTRHTGVPERFSGSGSGTDFTLTISSLQPEDFATYFCQQYGSSVLTFGGGTKVEIK
notes: Only variable regions are tied to this name; also called M719-014
B12: h1722-006 (antibody, V domains shown)
VH: B4 VH
VL: B4 VL with L4M, F48Y, Y70F
notes: as for B1
B13: h1719-006 (antibody, V domains shown)
VH: B2 VH with N35S, I37V, A44G, S56N, A62V, Y99N, F100Y, A108P, S111Y
VL: B11 VL
notes: also called M719-006

Molecular target: T1, Monkey CD96-3xFlag (cyno-CD96-3xFLAG) (cynomolgus monkey)
T1 construct: Signal peptide marked only by lost underlining; also called cynomolgus CD96
T1 chain: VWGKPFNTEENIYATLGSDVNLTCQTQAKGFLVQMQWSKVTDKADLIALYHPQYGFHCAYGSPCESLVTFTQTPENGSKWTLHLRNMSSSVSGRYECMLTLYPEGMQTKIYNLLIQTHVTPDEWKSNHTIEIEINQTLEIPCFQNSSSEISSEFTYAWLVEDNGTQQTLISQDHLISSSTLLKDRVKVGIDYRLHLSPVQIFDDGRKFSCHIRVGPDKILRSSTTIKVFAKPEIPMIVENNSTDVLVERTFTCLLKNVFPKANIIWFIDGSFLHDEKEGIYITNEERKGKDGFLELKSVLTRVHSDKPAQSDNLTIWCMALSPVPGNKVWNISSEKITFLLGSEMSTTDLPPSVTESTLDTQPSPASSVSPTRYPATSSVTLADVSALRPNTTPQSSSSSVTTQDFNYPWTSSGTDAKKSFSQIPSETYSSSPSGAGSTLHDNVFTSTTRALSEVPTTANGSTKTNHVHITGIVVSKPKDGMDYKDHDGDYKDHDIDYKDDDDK
Assay: ELISA, cyno-CD96-3xFLAG coated
Experimental: The cross-reactive binding capacity of the anti-CD96 antibody to monkey CD96 was tested by ELISA to determine the binding of the antibody to cynomolgus CD96 protein. The 3×FLAG-tagged CD96 fusion protein was used to coat the microtiter plate, and the intensity of the signal after adding with the antibody was used for evaluating the binding activity of the antibody and cynomolgus CD96. The specific experimental method is as follows:
cyno-CD96-3×FLAG with the amino acid sequence of SEQ ID NO: 95 prepared in Embodiment 4 was diluted to a concentration of 2 μg/ml with PBS buffer (Shanghai Yuanpei Biotechnology Co., Ltd. Cat No. B320), pH 7.4, added to a 96-well microtiter plate (Corning, Cat No. CLS3590-100EA) at a volume of 50 μl/well, and placed in an incubator at 37° C. for 2 hours. After discarding the liquid, 250 μl/well of 5% skim milk (BD, 232100) blocking solution diluted with PBS was added, and the plate was incubated in an incubator at 37° C. for 2.5 hours or at 4° C. overnight (16-18 hours) for blocking. After blocking, the blocking solution was discarded, and the plate was washed 4 times with PBST buffer (pH 7.4 PBS containing 0.05% tween-20). 50 μl/well of different concentrations of the antibodies to be tested (hybridoma purification antibody or humanized antibody) diluted with sample dilution was added, and the plate was incubated in an incubator at 37° C. for 1 hour. […] After washing the plate 4 times with PBST, 50 μl/well of TMB chromogenic substrate (KPL, Cat No. 52-00-03) was added, and the plate was incubated at room temperature for 5-15 minutes, followed by adding 50 μl/well of 1M H₂SO₄ to stop the reaction. The absorption value was read at 450 nm with a NOVOStar microplate reader, and the EC50 value of the binding of CD96 antibody to monkey CD96 was calculated (see Table 14).

Binder | EC50 [nM]
B1 | 0.075
B2 | 0.037
B3 | 0.096
B4 | 0.047
B5 | 0.047
B6 | 0.051
B7 | 0.068
B8 | 0.047
B9 | 0.046
B10 | 0.05
B11 | 0.065

What follows are binders tested against T2, CD96 extracellular region with His tag (CD96-His) (human, UniProt P40200 22-519) (assay: blocking cell ELISA: antibody premixed with Bio-CD96-His (0.5 ug/mL), binding to fixed CD155-CHO cells).
T2 construct: also called CD96-ECD-His; Bio-CD96-His (biotin-labelled form)
T2 sequence: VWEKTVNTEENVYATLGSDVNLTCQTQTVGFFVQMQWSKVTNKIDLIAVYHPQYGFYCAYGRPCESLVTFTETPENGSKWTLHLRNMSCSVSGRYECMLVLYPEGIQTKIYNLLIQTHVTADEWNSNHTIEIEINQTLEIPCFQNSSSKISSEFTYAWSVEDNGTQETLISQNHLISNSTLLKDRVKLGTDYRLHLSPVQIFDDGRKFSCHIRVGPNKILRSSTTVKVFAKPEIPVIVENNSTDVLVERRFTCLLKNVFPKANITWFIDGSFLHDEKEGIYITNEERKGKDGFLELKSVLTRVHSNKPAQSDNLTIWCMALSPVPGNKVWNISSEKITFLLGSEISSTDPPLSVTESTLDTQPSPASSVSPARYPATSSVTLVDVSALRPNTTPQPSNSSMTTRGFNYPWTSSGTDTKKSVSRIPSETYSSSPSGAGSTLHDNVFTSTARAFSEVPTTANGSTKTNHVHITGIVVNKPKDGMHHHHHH
Experimental: CD155-CHO cells (constructed by Shanghai Hengrui) were seeded in 96-well culture plates at a density of 9×10⁴/100 μL/well and cultured overnight. After aspirating the supernatant, the plate was washed once with PBS, 100 μl/well of immunostaining fixation solution (Biyuntian, Cat No. P0098) was added and fixed for one hour at room temperature, and the plate was washed three times with PBS. After discarding the liquid, 250 μl/well of 5% skim milk (BD, Cat No. 232100) blocking solution diluted with PBS was added, and the plate was blocked in an incubator at 37° C. for 2.5 hours. After blocking, the blocking solution was discarded, subsequently, the plate was washed 4 times with PBST buffer (pH 7.4 PBS containing 0.05% tween-20). 50 μl/well of antigen-antibody pre-incubation solution (gradient concentrations of the hybridoma antibody to be tested and CD96-Fc at a final concentration of 0.5 μg/mL were premixed at 37° C. for 30 minutes, or gradient concentrations of humanized antibody samples and Bio-CD96-His at a final concentration of 0.5 μg/mL were premixed at 37° C. for 30 minutes) (Biotin-labeled kit, Dongren Chemical, Cat No. LK03) was added, and the plate was incubated in an incubator at 37° C. for 2 hours. After incubation, the reaction solution in the microtiter plate was discarded, the plate was washed 4 times with PBST, and 50 μl/well of HRP-labeled goat anti-human secondary antibody (Jackson Immuno Research, Cat No. 109-035-003) diluted with sample dilution or HRP-labeled streptavidin diluted with sample dilution (Sigma, Cat No. 52438) was added, followed by incubating at 37° C. for 1 hour. After washing the plate 4 times with PBST, 50 μl/well of TMB chromogenic substrate (KPL, Cat No. 52-00-03) was added, the plate was incubated at room temperature for 10-20 minutes, followed by adding 50 μl/well of 1M H₂SO₄ to stop the reaction. The absorption value was read at 450 nm with a NOVOStar microplate reader, and the EC50 value of the effect of CD96 antibody on blocking the binding between the antigens and CD155-CHO cells was calculated (see FIG. 2 and Table 16).

Binder | IC50 [nM]
B1 | 0.133
B2 | 0.155
B4 | 0.207
B12 | 0.398
B5 | 0.135
B6 | 0.134
B13 | 0.064
B11 | 0.046

From US20200347130A1 (JIANGSU HENGRUI MEDICINE, published 2020)
